Laboratory results reported in FireProtDB (doi:10.1016/0022-2836(92)90563-y).

B1: Ribonuclease, P00648 (parent)
chain: MMKMEGIALKKRLSWISVCLLVLVSAAGMLFSTAAKTETSSHKAHTEAQVINTFDGVADYLQTYHKLPDNYITKSEAQALGWVASKGNLADVAPGKSIGGDIFSNREGKLPGKSGRTWREADINYTSGFRNSDRILYSSDWLIYKTTDHYQTFTKIR

Variants of: B1
Conditions: Bacillus amyloliquefaciens; pH 6.3; 25 °C; Urea; Fluorescence; MES 50 micro M; reversible: yes; structure 1BNI; whole UniProt chain shown

Variant	ddG of mutation (higher = less stable)
MMKMEGIALKKRLSWISVCLLVLVSAAGMLFSTAAKTETSSHKAHTEAQVINTFDGVADYLQTYHKLPDNYITKSEAQALGWVASKGNLADVAPGKSIGGDIFSNREGKLPGKSGRTWREADIAYTSGFRNSDRILYSSDWLIYKTTDHYQTFTKIR [N124A]	1.66 kcal/mol
MMKMEGIALKKRLSWISVCLLVLVSAAGMLFSTAAKTETSSHKAHTEAQVINTFDGVADYLQTYHKLPDNYITKSEAQALGWVASKGNLADVAPGKSIGGDIFSNREGKLPGKSGRTWREADINFTSGFRNSDRILYSSDWLIYKTTDHYQTFTKIR [Y125F]	1.35 kcal/mol
MMKMEGIALKKRLSWISVCLLVLVSAAGMLFSTAAKTETSSHKAHTEAQVINTFDGVADYLQSYHKLPDNYITKSEAQALGWVASKGNLADVAPGKSIGGDIFSNREGKLPGKSGRTWREADINYTSGFRNSDRILYSSDWLIYKTTDHYQTFTKIR [T63S]	1.68 kcal/mol
MMKMEGIALKKRLSWISVCLLVLVSAAGMLFSTAAKTETSSHKAHTEAQVINTFDGVADYLQRYHKLPDNYITKSEAQALGWVASKGNLADVAPGKSIGGDIFSNREGKLPGKSGRTWREADINYTSGFRNSDRILYSSDWLIYKTTDHYQTFTKIR [T63R]	-0.47 kcal/mol
MMKMEGIALKKRLSWISVCLLVLVSAAGMLFSTAAKTETSSHKAHTEAQVINTFDGVADYLQTYHKLPDNYITKSEAQALGWVASKGNLADVAPGKSIGGDIFSNREGKLPGKSGRTWREADINYTSGFRASDRILYSSDWLIYKTTDHYQTFTKIR [N131A]	2.02 kcal/mol
MMKMEGIALKKRLSWISVCLLVLVSAAGMLFSTAAKTETSSHKAHTEAQVINTFDGTADYLQTYHKLPDNYITKSEAQALGWVASKGNLADVAPGKSIGGDIFSNREGKLPGKSGRTWREADINYTSGFRNSDRILYSSDWLIYKTTDHYQTFTKIR [V57T]	2.48 kcal/mol
MMKMEGIALKKRLSWISVCLLVLVSAAGMLFSTAAKTETSSHKAHTEAQVINTFDGAADYLQTYHKLPDNYITKSEAQALGWVASKGNLADVAPGKSIGGDIFSNREGKLPGKSGRTWREADINYTSGFRNSDRILYSSDWLIYKTTDHYQTFTKIR [V57A]	3.4 kcal/mol
MMKMEGIALKKRLSWISVCLLVLVSAAGMLFSTAAKTETSSHKAHTEAQVINTFDGVADYLQTYHKLPDNYITKSEAQALGWVASKGNLADVAPGKSIGGDIFSNREGKLPGKSGRTWREADVNYTSGFRNSDRILYSSDWLIYKTTDHYQTFTKIR [I123V]	0.82 kcal/mol
MMKMEGIALKKRLSWISVCLLVLVSAAGMLFSTAAKTETSSHKAHTEAQVINTFDGVADYLQTYHKLPDNYITKSGAQALGWVASKGNLADVAPGKSIGGDIFSNREGKLPGKSGRTWREADINYTSGFRNSDRILYSSDWLIYKTTDHYQTFTKIR [E76G]	1.76 kcal/mol
MMKMEGIALKKRLSWISVCLLVLVSAAGMLFSTAAKTETSSHKAHTEAQVINTFDGVADYLQTYHKLPDNYITKSEAQALGWVASKGNLADAAPGKSIGGDIFSNREGKLPGKSGRTWREADINYTSGFRNSDRILYSSDWLIYKTTDHYQTFTKIR [V92A]	1.72 kcal/mol
MMKMEGIALKKRLSWISVCLLVLVSAAGMLFSTAAKTETSSHKAHTEAQVINTFDGVADYLQTYHKLPDNYITKSEAQALGWVASKGNLADTAPGKSIGGDIFSNREGKLPGKSGRTWREADINYTSGFRNSDRILYSSDWLIYKTTDHYQTFTKIR [V92T]	2.32 kcal/mol
MMKMEGIALKKRLSWISVCLLVLVSAAGMLFSTAAKTETSSHKAHTEAQVINTFDGVADYLQTYQKLPDNYITKSEAQALGWVASKGNLADVAPGKSIGGDIFSNREGKLPGKSGRTWREADINYTSGFRNSDRILYSSDWLIYKTTDHYQTFTKIR [H65Q]	1.44 kcal/mol
MMKMEGIALKKRLSWISVCLLVLVSAAGMLFSTAAKTETSSHKAHTEAQVINTFDGVADYLQTYHKLPDNYITKSEAQALGWVASKGNLADVAPGKSIGGDIFSNREGKLPGKSGRTWREADINYTSGFRNSDRILYSSDWLIYKTTDHYQTFTKVR [I156V]	0.76 kcal/mol
MMKMEGIALKKRLSWISVCLLVLVSAAGMLFSTAAKTETSSHKAHTEAQVINTFDGVADYLQTYHKLPDNYVTKSEAQALGWVASKGNLADVAPGKSIGGDIFSNREGKLPGKSGRTWREADINYTSGFRNSDRILYSSDWLIYKTTDHYQTFTKIR [I72V]	1.12 kcal/mol
MMKMEGIALKKRLSWISVCLLVLVSAAGMLFSTAAKTETSSHKAHTEAQVVNTFDGVADYLQTYHKLPDNYITKSEAQALGWVASKGNLADVAPGKSIGGDIFSNREGKLPGKSGRTWREADINYTSGFRNSDRILYSSDWLIYKTTDHYQTFTKIR [I51V]	0.67 kcal/mol
MMKMEGIALKKRLSWISVCLLVLVSAAGMLFSTAAKTETSSHKAHTEAQVINTFDGVADYLQTYHKLPDNYITKSEAQALGWTASKGNLADVAPGKSIGGDIFSNREGKLPGKSGRTWREADINYTSGFRNSDRILYSSDWLIYKTTDHYQTFTKIR [V83T]	1.15 kcal/mol
MMKMEGIALKKRLSWISVCLLVLVSAAGMLFSTAAKTETSSHKAHTEAQVINTFDGVADYLQTYHKLPDNYITKSEAQALGWVASKGNLADVAPGKSVGGDIFSNREGKLPGKSGRTWREADINYTSGFRNSDRILYSSDWLIYKTTDHYQTFTKIR [I98V]	1.8 kcal/mol
MMKMEGIALKKRLSWISVCLLVLVSAAGMLFSTAAKTETSSHKAHTEAQVINTFDGVADYLQTYHKLPDNYITKSEAQALGWVASKGNLADVAPGKSIGGDVFSNREGKLPGKSGRTWREADINYTSGFRNSDRILYSSDWLIYKTTDHYQTFTKIR [I102V]	0.3 kcal/mol

Variant	ddG of mutation (higher = less stable)
MMKMEGIALKKRLSWISVCLLVLVSAAGMLFSTAAKTETSSHKAHTEAQVINTFDGVADYLQTYHKLPDNYITKSEAQAQGWVASKGNLADVAPGKSIGGDIFSNREGKLPGKSGRTWREADINYTSGFRNSDRILYSSDWLIYKTTDHYQTFTKIR [L80Q]	1.3 kcal/mol
MMKMEGIALKKRLSWISVCLLVLVSAAGMLFSTAAKTETSSHKAHTEAQVINTFDGVADYLQTAHKLPDNYITKSEAQALGWVASKGNLADVAPGKSIGGDIFSNREGKLPGKSGRTWREADINYTSGFRNSDRILYSSDWLIYKTTDHYQTFTKIR [Y64A]	2.43 kcal/mol
MMKMEGIALKKRLSWISVCLLVLVSAAGMLFSTAAKTETSSHKAHTEAQVINTFDGVADYLQTYHKLPDNYITKSEAQALGWVASKGNLADVAPGKSIGGDIFSAREGKLPGKSGRTWREADINYTSGFRNSDRILYSSDWLIYKTTDHYQTFTKIR [N105A]	2.17 kcal/mol
MMKMEGIALKKRLSWISVCLLVLVSAAGMLFSTAAKTETSSHKAHTEAQVINTFDGVADYLQTYHKLPDNYIAKSEAQALGWVASKGNLADVAPGKSIGGDIFSNREGKLPGKSGRTWREADINYTSGFRNSDRILYSSDWLIYKTTDHYQTFTKIR [T73A]	1.93 kcal/mol
MMKMEGIALKKRLSWISVCLLVLVSAAGMLFSTAAKTETSSHKAHTEAQVINTFDGVADYLQTYHKLPDNYIGKSEAQALGWVASKGNLADVAPGKSIGGDIFSNREGKLPGKSGRTWREADINYTSGFRNSDRILYSSDWLIYKTTDHYQTFTKIR [T73G]	1.42 kcal/mol
MMKMEGIALKKRLSWISVCLLVLVSAAGMLFSTAAKTETSSHKAHTEAQVINGFDGVADYLQTYHKLPDNYITKSEAQALGWVASKGNLADVAPGKSIGGDIFSNREGKLPGKSGRTWREADINYTSGFRNSDRILYSSDWLIYKTTDHYQTFTKIR [T53G]	1.21 kcal/mol
MMKMEGIALKKRLSWISVCLLVLVSAAGMLFSTAAKTETSSHKAHTEAQVINAFDGVADYLQTYHKLPDNYITKSEAQALGWVASKGNLADVAPGKSIGGDIFSNREGKLPGKSGRTWREADINYTSGFRNSDRILYSSDWLIYKTTDHYQTFTKIR [T53A]	2.15 kcal/mol
MMKMEGIALKKRLSWISVCLLVLVSAAGMLFSTAAKTETSSHKAHTEAQVINTFDGVADALQTAHKLPDNYITKSEAQALGWVASKGNLADVAPGKSIGGDIFSNREGKLPGKSGRTWREADINYTSGFRNSDRILYSSDWLIYKTTDHYQTFTKIR [Y60A Y64A]	5 kcal/mol
MMKMEGIALKKRLSWISVCLLVLVSAAGMLFSTAAKTETSSHKAHTEAQVINTFDGVADYAQTYHKLPDNYITKSEAQALGWVASKGNLADVAPGKSIGGDIFSNREGKLPGKSGRTWREADINYTSGFRNSDRILYSSDWLIYKTTDHYQTFTKIR [L61A]	4.32 kcal/mol
MMKMEGIALKKRLSWISVCLLVLVSAAGMLFSTAAKTETSSHKAHTEAQVINTFDGVADYLQTYHKLPDNYITKSEAQALGWVASKGNLADVAPGKSIGGDIFSNREGKLPGKSGRTWREADINYTSGFRNSDRILYSSDWLIYKTTDHYQVFTKIR [T152V]	2.25 kcal/mol
MMKMEGIALKKRLSWISVCLLVLVSAAGMLFSTAAKTETSSHKAHTEAQVINTFDGVADYLQSAHKLPDNYITKSEAQALGWVASKGNLADVAPGKSIGGDIFSNREGKLPGKSGRTWREADINYTSGFRNSDRILYSSDWLIYKTTDHYQTFTKIR [T63S Y64A]	2.55 kcal/mol
MMKMEGIALKKRLSWISVCLLVLVSAAGMLFSTAAKTETSSHKAHTEAQVINTFDGVADALQTYHKLPDNYITKSEAQALGWVASKGNLADVAPGKSIGGDIFSNREGKLPGKSGRTWREADINYTSGFRNSDRILYSSDWLIYKTTDHYQTFTKIR [Y60A]	3.71 kcal/mol
MMKMEGIALKKRLSWISVCLLVLVSAAGMLFSTAAKTETSSHKAHTEAQVIATFDGVADYLQTYHKLPDNYITKSEAQALGWVASKGNLADVAPGKSIGGDIFSNREGKLPGKSGRTWREADINYTSGFRNSDRILYSSDWLIYKTTDHYQTFTKIR [N52A]	1.85 kcal/mol
MMKMEGIALKKRLSWISVCLLVLVSAAGMLFSTAAKTETSSHKAHTEAQVINTFDGVADYLQTYHKLPDNYITKSEAQALGWVASKGNLADVAPGKSIGGDIFSNREGKLPGKSGRTWREADINYTSGFRNSDRILYSSDWLIYKVTDHYQTFTKIR [T146V]	2.99 kcal/mol
MMKMEGIALKKRLSWISVCLLVLVSAAGMLFSTAAKTETSSHKAHTEAQVINTFDGVADYLQTYHKLPDNYITKSEAQALGWVASKGNLADVAPGKSIGGDIFSNREGRLPGKSGRTWREADINYTSGFRNSDRILYSSDWLIYKTTDHYQTFTKIR [K109R]	0.43 kcal/mol
MMKMEGIALKKRLSWISVCLLVLVSAAGMLFSTAAKTETSSHKAHTEAQVINTFDGVADYLQTYHKLPDNYITKSEAQALGWVASKGNLADVAPGKSIGGDIFSNREGKLPGKSGRTWREADINYTSGFRNSDRILYSADWLIYKTTDHYQTFTKIR [S139A]	2.8 kcal/mol
MMKMEGIALKKRLSWISVCLLVLVSAAGMLFSTAAKTETSSHKAHTEAQVINTFDGVADYLQTYHKLPDNYITKSEAQALGWVASKGNLADVAPGKSIGGDIFSNREGKLPGKSGRTWREADINYTSGFRNSDRILYASDWLIYKTTDHYQTFTKIR [S138A]	1.94 kcal/mol
MMKMEGIALKKRLSWISVCLLVLVSAAGMLFSTAAKTETSSHKAHTEAQVINTFDGVADYLQTYHKLPDNYITKSEAQALGWVASKGNLADVAPGKSIGGDIFSNREGKLPGKSGRTWREADINYTSGFRNSDRVLYSSDWLIYKTTDHYQTFTKIR [I135V]	1.34 kcal/mol
